Here are results for 3 substances from US20250250357A1.

Where two headings read alike, the source gives them in different places.

Test [1] addresses human MSLN-R3-rFc protein (human) (UniProt Q13421). The test is described as follows: ELISA, antibody 1 nM. A general note: ELISA stands for enzyme-linked immunosorbent assay.
The target is the same in test [2]. The test is described as follows: ELISA, antibody 4 nM.
For test [3] the target is unchanged. The test is described as follows: ELISA, antibody 100 nM.
Test [4] shares this target. The test is described as follows: ELISA, antibody 0.032 nM.
Test [5] concerns the target human MSLN-FL-his protein (human) (UniProt Q13421). The test can be described thus: ELISA, antibody 0.0001 nM.
The target of test [6] is human MSLN-R3-3 polypeptide (human). The test is described as follows: ELISA, coated MSLN-R3-3.
In test [7] the target is human MSLN-FL-his protein (human) (UniProt Q13421). The test can be described thus: ELISA on coated antigen, antibody 1 nM.
For test [8], the target named is human MSLN-R3-3 polypeptide (human). The test can be described thus: ELISA on coated antigen, antibody 1 nM.
The target is the same in test [9]. The test can be described thus: ELISA on coated antigen, antibody 10 nM.
In test [10] the target is human MSLN-FL-his protein (human) (UniProt Q13421). The test is described as follows: ELISA on coated antigen, antibody 0.1 nM.
In test [11] the target is human MSLN-R3-3 polypeptide (human). The test is described as follows: ELISA on coated antigen, antibody 0.1 nM.
Test [12] deals with human MSLN-FL-his protein (human) (UniProt Q13421). The test can be described thus: ELISA on coated antigen, antibody 100 nM.
Test [13] has as its target human MSLN-R3-3 polypeptide (human). The test is described as follows: ELISA on coated antigen, antibody 100 nM.
The target is the same in test [14]. The test can be described thus: ELISA, coated antigen; antibody 0.001 nM.
Test [15] has as its target human MSLN-FL-his protein (human) (UniProt Q13421). The test can be described thus: ELISA on coated antigen, antibody 0.01 nM.
Test [16] has as its target human MSLN-R3-3 polypeptide (human). The test can be described thus: ELISA on coated antigen, antibody 0.01 nM.
Test [17] has the same target. The test is described as follows: ELISA, coated antigen; antibody 0.0001 nM.
For test [18] the target is unchanged. The test is described as follows: ELISA on coated antigen, antibody 0.001 nM.
The target is the same in test [19]. The test is described as follows: ELISA on coated antigen, antibody 0.0001 nM.
Test [20] concerns the target human MSLN-R2-his protein (human) (UniProt Q13421). The test can be described thus: ELISA on coated antigen, antibody 0.0002 nM.
Test [21] addresses human MSLN-R3-his protein (human) (UniProt Q13421). The test is described as follows: ELISA on coated antigen, antibody 0.0002 nM.
Test [22] has as its target human MSLN-R3-3 polypeptide (human). The test can be described thus: ELISA on coated antigen, no antibody (column none).
Test [23] shares this target. The test can be described thus: ELISA, coated antigen; no antibody (blank, column 'none').
Test [24] deals with human MSLN-FL-his protein (human) (UniProt Q13421). The test can be described thus: ELISA on coated antigen, no antibody (blank, column 'none').
Test [25] deals with human MSLN on OVCAR3 tumor cells (human) (UniProt Q13421). The test can be described thus: FACS, OVCAR3 cells.
The target is the same in test [26]. The test is described as follows: FACS, OVCAR3 cells. The source holds these as a separate data set. In general terms: Flow cytometry measures light scatter and fluorescence of single cells or particles in a stream.
For test [27] the target is unchanged. The test can be described thus: FACS, OVCAR3 cells. This is another data set of the same source.
For test [28] the target is unchanged. The test can be described thus: FACS, OVCAR3 cells. This is another data set of the same source.
Test [29] deals with human MSLN-R3 on HEK293T-hMSLN-R3 recombinant cells (human) (UniProt Q13421). The test can be described thus: FACS, HEK293T-hMSLN-R3 cells.
For test [30] the target is unchanged. The test is described as follows: FACS, HEK293T-hMSLN-R3 cells. The source holds these as a separate data set.
The target is the same in test [31]. The test is described as follows: FACS, HEK293T-hMSLN-R3 cells. This is another data set of the same source.
The target is the same in test [32]. The test is described as follows: FACS, HEK293T-hMSLN-R3 cells. The source holds these as a separate data set.
In test [33] the target is monkey MSLN on HEK293T-monkey MSLN recombinant cells (monkey). The test is described as follows: FACS, HEK293T-monkey MSLN cells.
For test [34] the target is unchanged. The test is described as follows: FACS, HEK293T-monkey MSLN cells. This is another data set of the same source.
Test [35] shares this target. The test is described as follows: FACS, HEK293T-monkey MSLN cells. This is another data set of the same source.
The target is the same in test [36]. The test is described as follows: FACS, HEK293T-monkey MSLN cells. The source holds these as a separate data set.
For test [37], the target named is human MSLN-hFc protein (Acro, Cat. No. MSN-H5253) (human) (UniProt Q13421). The test can be described thus: ELISA on coated antigen, antibody 1 nM.
For test [38] the target is unchanged. The test is described as follows: ELISA on coated antigen, antibody 1 nM. The source holds these as a separate data set.
For test [39] the target is unchanged. The test can be described thus: ELISA on coated antigen, antibody 10 nM.
Test [40] has the same target. The test is described as follows: ELISA on coated antigen, antibody 0.1 nM.
Test [41] has the same target. The test is described as follows: ELISA on coated antigen, antibody 100 nM.
For test [42] the target is unchanged. The test can be described thus: ELISA on coated antigen, antibody 0.1 nM. The source holds these as a separate data set.
Test [43] has the same target. The test is described as follows: ELISA on coated antigen, antibody 0.01 nM.
Test [44] has the same target. The test can be described thus: ELISA on coated antigen, antibody 0.001 nM.
Test [45] has the same target. The test is described as follows: ELISA on coated antigen, antibody 0.001 nM. This is another data set of the same source.
Test [46] shares this target. The test can be described thus: ELISA on coated antigen, antibody 0.0001 nM.

Sequence of human MSLN-R3 on HEK293T-hMSLN-R3 recombinant cells (human) (Q13421 495-614): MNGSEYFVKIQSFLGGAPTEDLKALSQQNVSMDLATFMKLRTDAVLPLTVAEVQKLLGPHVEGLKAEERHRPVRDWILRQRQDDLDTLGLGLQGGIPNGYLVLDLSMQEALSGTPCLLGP
Sequence of human MSLN on OVCAR3 tumor cells (human) (Q13421 other isoform, or with tags, fused parts or gaps): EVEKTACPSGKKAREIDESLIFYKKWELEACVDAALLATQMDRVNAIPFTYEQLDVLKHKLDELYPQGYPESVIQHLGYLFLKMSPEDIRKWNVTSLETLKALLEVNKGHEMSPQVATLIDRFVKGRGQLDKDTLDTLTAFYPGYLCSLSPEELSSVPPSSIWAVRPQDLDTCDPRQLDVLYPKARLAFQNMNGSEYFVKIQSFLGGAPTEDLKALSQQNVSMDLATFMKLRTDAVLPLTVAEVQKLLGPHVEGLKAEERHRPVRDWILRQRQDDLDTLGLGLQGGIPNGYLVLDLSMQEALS
Sequence of human MSLN-R3-rFc protein (human) (Q13421 495-606): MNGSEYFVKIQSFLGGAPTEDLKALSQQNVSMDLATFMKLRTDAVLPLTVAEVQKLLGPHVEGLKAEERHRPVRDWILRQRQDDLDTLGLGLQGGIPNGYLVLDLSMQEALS
Sequence of human MSLN-FL-his protein (human) (Q13421 other isoform, or with tags, fused parts or gaps): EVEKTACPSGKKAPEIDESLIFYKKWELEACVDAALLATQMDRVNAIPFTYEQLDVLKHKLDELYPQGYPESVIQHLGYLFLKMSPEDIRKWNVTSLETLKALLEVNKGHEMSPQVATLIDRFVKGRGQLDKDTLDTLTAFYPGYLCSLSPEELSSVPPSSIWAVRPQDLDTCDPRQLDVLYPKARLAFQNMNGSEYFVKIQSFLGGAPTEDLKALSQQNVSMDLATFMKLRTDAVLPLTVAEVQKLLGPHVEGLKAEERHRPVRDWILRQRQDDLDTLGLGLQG
Sequence of human MSLN-hFc protein (Acro, Cat. No. MSN-H5253) (human) (Q13421 other isoform, or with tags, fused parts or gaps limits assumed): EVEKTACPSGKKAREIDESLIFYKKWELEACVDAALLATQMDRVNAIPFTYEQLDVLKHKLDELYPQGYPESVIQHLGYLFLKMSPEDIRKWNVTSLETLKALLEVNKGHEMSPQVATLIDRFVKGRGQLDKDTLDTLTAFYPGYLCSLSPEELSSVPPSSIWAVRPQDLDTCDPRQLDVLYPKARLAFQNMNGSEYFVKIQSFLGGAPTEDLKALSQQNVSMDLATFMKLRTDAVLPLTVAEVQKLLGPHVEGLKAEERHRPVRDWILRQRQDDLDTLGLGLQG
Sequence of human MSLN-R3-his protein (human) (Q13421 495-606): as the sequence (Q13421 495-606) above
Sequence of human MSLN-R2-his protein (human) (Q13421 other isoform, or with tags, fused parts or gaps): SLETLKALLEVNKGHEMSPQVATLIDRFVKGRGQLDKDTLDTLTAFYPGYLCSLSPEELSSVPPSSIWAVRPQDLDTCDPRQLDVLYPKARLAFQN

Turning to hIgG1 (human IgG1 control antibody), the OD450 nm in [1] turned out to be 0.09; in [2], 0.15; in [3], 0.21; in test [4], 0.11; in test [5], 0.04.

On to anti-hel-hIgG1 (antibody), for which, in test [6], the OD450 at 0.0001 nM was 0.07 OD450. Besides, the OD450 at 0.001 nM in test [6] amounted to 0.07 OD450. Besides, the OD450 at 0.01 nM in test [6] came out at 0.06 OD450. In test [6], this substance registered an OD450 at 0.1 nM of 0.06 OD450. In addition, the OD450 at 1 nM in test [6] was determined as 0.06 OD450. Moreover, in test [6], the OD450 at 10 nM is 0.07 OD450. Moreover, the OD450 at none (no antibody) in [6] was 0.08 OD450. The OD450 in [7] worked out at 0.04 OD; in test [8], 0.05 OD450; in test [9], 0.05 OD450; in [10], 0.04 OD; in test [11], 0.05 OD450; in test [12] it was 0.1 OD450. The OD450 amounted to 0.06 OD450 in test [13]; 0.08 OD450 in [14]; 0.04 OD in test [15]; 0.05 OD450 in test [16]; 0.07 OD450 in test [17]; 0.05 OD450 in [18]. Further, the OD450 came to 0.05 OD450 in test [19]; 0.52 OD in [20]; 0.33 OD in [21]; 0.05 OD450 in test [22]; 0.07 OD450 in test [23]; 0.04 OD in [24].

With Tab084 (NC) (scFv), the Maximum MFI came out at 336 MFI in [25]; 209 MFI in test [26]; 469 MFI in [27]; 454 MFI in [28]; 439 MFI in test [29]; 92 MFI in test [30]. Also, the Maximum MFI was 304 MFI in test [31]; 156 MFI in [32]; 279 MFI in test [33]; 104 MFI in test [34]; 231 MFI in [35]; 172 MFI in [36]. Also, the OD450 in test [37] was 0.06 OD450; in test [38], 0.07 OD450; in test [39] it was 0.07 OD450; in test [40], 0.13 OD450; in test [41], 0.07 OD450; in test [42], 0.06 OD450. The OD450 in [43] worked out at 0.07 OD450; in [44], 0.11 OD450; in [45], 0.07 OD450; in test [46], 0.06 OD450.
